The conditions of data set [1]: cited from earlier work. The text has this: This may be caused by several factors: first, palmitic acid can reversibly bind to albumin to prolong the blood retention time and reduce the elimination of peptides; second, ^177Lu-palm-3PRGD2 is amphiphilic and may self-assemble to form tiny nanoparticles (possibly nanospheres or nanofibers) with larger molecular sizes, resulting in lo ...

Details of data set [2]: species or system KM mice. The following applies: mouse, in vivo, iv. On the procedure: (§1) Female KM mice were randomly divided into three groups (n = 5). […] Blood samples obtained from the canthus vein were collected at different time points post injection (p.i.), weighed, and evaluated using a γ-counter. The results are presented as the percentage injected activity per gram (%IA/g). Nonlinear regression (curve fit) followed by two phase decay was performed using GraphPad Prism version 9.0.0 for Windows, GraphPad Software, San Diego, CA, USA, www.graphpad.com (accessed on 22 May 2022). And then the half-lives values were calculated and determined.

On the set-up of data set [3]: species or system C57BL/6 mice. The following applies: mouse, in vivo. The method, then:
as §1, with “determined. Blood clearance studies were performed in normal KM mice. […] Blood clearance studies were also performed in C57BL/6 mice.” for “determined.”

A short description of a further data set: in vivo. The following applies: C57BL/6, mouse, 0.74 MBq, total radioactivity. The method, then:
(§2) Mice bearing MC38 xenografts were randomly divided into 10 groups (n = 4). The mice in five groups were administered 0.74 MBq/20 µCi of ^177Lu-Palm-3PRGD2 and sacrificed at 1, 4, 12, 24, and 72 h p.i. The mice on one group was injected with 0.74 MBq/20 µCi of ^177Lu-Palm-3PRGD2 and 500 μg (242 nmol) 3PRGD2 as a blocking agent and sacrificed at 1 h p.i. […] Tumors and major organs were harvested, weighed and measured for radioactivity using a γ-counter. The organ uptake was calculated as the percentage injected activity per gram (%IA/g). The effective absorbed dose in humans estimated from mouse biodistribution data by using a dedicated software (OLINDA 1.0).

A further data set in a line: physchem. The format is physicochemical. The method, then: Briefly, the radiopharmaceuticals were prepared and purified with Sep-Pak-C18 cartridges and then dissolved in a mixed solution of 5 mL n-octanol and 5 mL PBS. After vortexing for 1 h, the mixture was centrifuged at 10,000 rpm for 10 min. Samples (100 μL, n = 4) from the n-octanol and PBS components were collected and counted using a γ-counter. The […] were calculated as the logarithm of the n-octanol/PBS ratio.

A further data set relates to MC38 tumor-bearing mice. The experiment in a line: in vivo. The following applies: mouse. The method, then:
as §2

The conditions of data set [4]: reportedly; cited from earlier work. The text has this: Albumin makes up approximately 55–60% of serum proteins, and its biological half-life is reportedly 19 days, which makes it possible to leverage the long circulation half-life of albumin to produce long-acting therapeutics.
Setting [5] is: Tumor-to-tissue ratio, Intestine.

Read-outs that look alike come from different tables or passages of the source.

As usually defined, the tissue uptake is the percentage of the injected dose found per gram of tissue. One may read the logD as lipophilicity at a set pH, counting ionised and neutral species. `N=C(N)NCCC[C@@H]1NC(=O)[C@H](CCCCNC(=O)CCOCCOCCOCCOCCNC(=O)CC[C@H](NC(=O)CCOCCOCCOCCOCCNC(=O)CN2CCN(CC(=O)O)CCN(CC(=O)O)CCN(CC(=O)O)CC2)C(=O)NCCOCCOCCOCCOCCC(=O)NCCCC[C@@H]2NC(=O)[C@@H](Cc3ccccc3)NC(=O)[C@H](CC(=O)O)NC(=O)CNC(=O)[C@H](CCCNC(=N)N)NC2=O)NC(=O)[C@@H](Cc2ccccc2)NC(=O)[C@H](CC(=O)O)NC(=O)CNC1=O` [^177Lu-3PRGD2, [^177Lu]Lu-DOTA-3PRGD2, metal not drawn]: in data set [1], the Effective absorbed dose is given as 1.35 × 10^−2 mSv/MBq. The “Half-Life (T1/2α)” value was determined as 1.94 min in data set [2] and 1.06 min in data set [3]. Further, the “Half-Life (T1/2β)” value was found to be 11.81 min in data set [2] and 14.54 min in data set [3]. Further, the tissue uptake at 4 h in the data set “in vivo” (Blood uptake) is 0.42 ± 0.26 %ID/g; in the data set “in vivo” (Bone uptake) it was 1.41 %ID/g; in the data set “in vivo” (Brain uptake), 0.09 %ID/g; in “in vivo” (Heart uptake), 0.75 %ID/g; in “in vivo” (Intestine uptake), 9.85 %ID/g; in the data set “in vivo” (Liver uptake) it was 2.95 %ID/g. In addition, the tissue uptake at 4 h in “in vivo” (Lung uptake) was determined as 1.73 %ID/g; in the data set “in vivo” (Muscle uptake), 0.52 %ID/g; in the data set “in vivo” (Spleen uptake), 2.65 %ID/g; in the data set “in vivo” (Stomach uptake), 2.96 %ID/g; in the data set “in vivo” (Tumor uptake), 6.22 %ID/g. For the same compound, the tissue uptake at 12 h in “in vivo” (Blood uptake) was found to be 0.32 %ID/g; in “in vivo” (Bone uptake), 1.46 %ID/g; in “in vivo” (Brain uptake), 0.11 %ID/g; in the data set “in vivo” (Heart uptake), 0.63 %ID/g; in “in vivo” (Intestine uptake), 7.97 %ID/g; in “in vivo” (Kidney uptake), 4.48 %ID/g. Moreover, the tissue uptake at 12 h was determined as 1.93 %ID/g in “in vivo” (Liver uptake); 1.46 %ID/g in “in vivo” (Lung uptake); 0.64 %ID/g in “in vivo” (Muscle uptake); 1.89 %ID/g in “in vivo” (Spleen uptake); 2.39 %ID/g in “in vivo” (Stomach uptake); 4.11 %ID/g in the data set “in vivo” (Tumor uptake). In addition, the tissue to tissue ratio at 4 h was determined as 20.3 in “in vivo” (Tumor-to-tissue ratio, Blood); 4.41 in the data set “in vivo” (Tumor-to-tissue ratio, Bone); 68.7 in the data set “in vivo” (Tumor-to-tissue ratio, Brain); 8.31 in “in vivo” (Tumor-to-tissue ratio, Heart); 0.66 in the data set “in vivo” (setting [5]); 2.11 in “in vivo” (Tumor-to-tissue ratio, Liver). For the same compound, the tissue to tissue ratio at 4 h in “in vivo” (Tumor-to-tissue ratio, Lung) amounted to 3.6; in “in vivo” (Tumor-to-tissue ratio, Muscle), 12; in the data set “in vivo” (Tumor-to-tissue ratio, Spleen) it was 2.36; in “in vivo” (Tumor-to-tissue ratio, Stomach), 2.1; in the data set “in vivo” (in vivo) it was 1.27. In addition, the tissue to tissue ratio at 12 h in the data set “in vivo” (Tumor-to-tissue ratio, Blood) is 14.2; in “in vivo” (Tumor-to-tissue ratio, Bone), 2.82; in the data set “in vivo” (Tumor-to-tissue ratio, Brain), 39.9; in the data set “in vivo” (Tumor-to-tissue ratio, Heart) it was 6.53; in the data set “in vivo” (setting [5]) it was 0.52; in the data set “in vivo” (Tumor-to-tissue ratio, Liver), 2.13. The tissue to tissue ratio at 12 h in the data set “in vivo” (Tumor-to-tissue ratio, Lung) was determined as 2.84; in “in vivo” (Tumor-to-tissue ratio, Muscle) it was 6.6; in the data set “in vivo” (Tumor-to-tissue ratio, Spleen), 2.22; in “in vivo” (Tumor-to-tissue ratio, Stomach), 1.72; in the data set “in vivo” (in vivo), 0.92. Besides, the logD in “physchem” was -4.05 ± 0.14.
As to `CCCCCCCCCCCCCCCC(=O)N[C@@H](CCC(=O)NCCCC[C@H](NC(=O)CN1CCN(CC(=O)O)CCN(CC(=O)O)CCN(CC(=O)O)CC1)C(=O)O)C(=O)O` [^177Lu-Palm, [^177Lu]Lu-DOTA-Palm, metal not drawn], in data set [2], the “Half-Life (T1/2α)” value came to 3.33 min and the “Half-Life (T1/2β)” value is listed as 29.82 min. In addition, in the data set on MC38 tumor-bearing mice, the “Tumor-to-tissue ratio, Brain” value is listed as 14.69.
As for Albumin, the Biological half-life in data set [4] was 19 days.

Source of the values: article PMC9321335, “Palmitic Acid-Conjugated Radiopharmaceutical for Integrin αvβ3-Targeted Radionuclide Therapy” (Pharmaceutics, 2022).
